In test [1] the test system is binding of the TS-A12/22 antibody to C5. In words: Competitive ELISA on solid-phase C5 after pre-incubation of TS-A12/22 with peptide. The arrangement: species or system human. The conditions noted are these: 800 ng CS5 or 3.5 μg C5a fragment; highest concentrations used. As for the experimental part: Binding of the antibody, pre-incubated in different conditions, was assessed by immuno-enzymatic assay using C5 on solid phase.
This peptide corresponds to region 727-744 of the mature protein and comprises the cleavage site of C5 convertase (indicated by the arrow) between […] according to SwissProt numbering for human C5 (SEQ ID P01031). The peptide was used in a competitive ELISA assay on the C5 protein on solid phase. Before binding to the solid phase, the TS-A12/22 antibody was pre-incubated with the PSA-18 peptide, corresponding to amino acids 727-744 of the C5 component, or with an unrelated peptide of sequence […] (SEQ ID NO:16 of sequence listing) corresponding to a fibronectin derived peptide termed CS5.
For orientation: An ELISA detects its analyte on a solid surface through an enzyme-linked reagent.

The target in test [2] is T1, factor C5 (Homo sapiens, UniProt P01031).
T1 construct: C5 alpha and beta subunits were obtained by incubating 50 μg of C5; purchased Quidel
T1 sequence (P01031 678-1676 limits assumed): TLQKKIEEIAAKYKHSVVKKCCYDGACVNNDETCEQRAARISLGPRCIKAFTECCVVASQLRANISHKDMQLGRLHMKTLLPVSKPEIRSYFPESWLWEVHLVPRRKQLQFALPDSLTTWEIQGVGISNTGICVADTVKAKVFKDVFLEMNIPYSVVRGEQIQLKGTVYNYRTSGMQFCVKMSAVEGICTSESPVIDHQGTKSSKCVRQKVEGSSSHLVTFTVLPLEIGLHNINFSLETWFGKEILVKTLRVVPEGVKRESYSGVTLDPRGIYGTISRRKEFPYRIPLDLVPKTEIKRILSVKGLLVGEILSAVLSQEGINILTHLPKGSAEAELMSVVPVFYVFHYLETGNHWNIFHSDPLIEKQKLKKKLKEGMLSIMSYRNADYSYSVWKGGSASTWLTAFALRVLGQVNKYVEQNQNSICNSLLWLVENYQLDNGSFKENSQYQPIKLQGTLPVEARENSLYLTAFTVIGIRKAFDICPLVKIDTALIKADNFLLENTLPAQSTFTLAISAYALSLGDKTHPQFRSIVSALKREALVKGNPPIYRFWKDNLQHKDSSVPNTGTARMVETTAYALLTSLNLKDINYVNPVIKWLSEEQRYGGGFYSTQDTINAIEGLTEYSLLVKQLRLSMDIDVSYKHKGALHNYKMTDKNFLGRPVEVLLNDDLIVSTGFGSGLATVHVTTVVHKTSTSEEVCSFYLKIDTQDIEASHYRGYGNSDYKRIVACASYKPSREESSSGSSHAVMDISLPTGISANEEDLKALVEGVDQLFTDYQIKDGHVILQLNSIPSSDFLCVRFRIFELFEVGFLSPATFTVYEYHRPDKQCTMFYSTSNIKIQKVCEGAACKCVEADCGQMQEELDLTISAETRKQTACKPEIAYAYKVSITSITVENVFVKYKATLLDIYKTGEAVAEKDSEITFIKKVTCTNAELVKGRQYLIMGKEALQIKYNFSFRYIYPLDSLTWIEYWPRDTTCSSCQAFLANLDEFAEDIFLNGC
T1 sequence (P01031 19-673 partner limits assumed): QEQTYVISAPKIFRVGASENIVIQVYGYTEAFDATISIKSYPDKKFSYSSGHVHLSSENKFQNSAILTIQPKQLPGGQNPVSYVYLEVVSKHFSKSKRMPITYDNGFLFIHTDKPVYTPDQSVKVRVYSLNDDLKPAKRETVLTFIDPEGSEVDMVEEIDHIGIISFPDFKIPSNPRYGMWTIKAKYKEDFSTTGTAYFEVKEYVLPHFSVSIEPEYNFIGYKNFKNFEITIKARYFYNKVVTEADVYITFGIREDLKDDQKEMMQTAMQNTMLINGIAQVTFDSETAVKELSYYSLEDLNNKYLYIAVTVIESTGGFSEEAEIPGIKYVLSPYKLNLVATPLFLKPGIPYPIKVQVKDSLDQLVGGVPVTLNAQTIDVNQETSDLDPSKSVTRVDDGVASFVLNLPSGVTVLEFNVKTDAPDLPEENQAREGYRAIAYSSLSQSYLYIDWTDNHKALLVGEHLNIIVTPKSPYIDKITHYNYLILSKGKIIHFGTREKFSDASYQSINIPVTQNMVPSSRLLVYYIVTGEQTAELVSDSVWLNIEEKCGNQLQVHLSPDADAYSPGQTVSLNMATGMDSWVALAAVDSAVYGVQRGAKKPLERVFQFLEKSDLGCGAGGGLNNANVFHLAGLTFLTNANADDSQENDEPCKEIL
Briefly: Surface plasmon resonance (BIACORE 2000) on C5 immobilized on chip. It counts as binding. The following applies: read-out: KD calculated. As for the experimental part:
The binding affinity of the Tsa-12 antibody, purified by means of FPLC on Superdex 75 (Pharmacia), for factor C5 was measured by means of BIACORE™ 2000 (a system that generates unique data on the interactions between proteins and other molecules). The microchip (CM5, Biacore) was prepared by direct conjugation of the C5 antigen with amines (20 μg/ml in 10 mM Sodium Acetate pH 4.5). The final level of immobilisation turned out to be approximately 1000 RU (Resonance Units). Association and dissociation of antibody molecules from the bio-chip were measured using an optical detection system (Surface Plasmon Resonance). The analysis was carried out at 25° C., at a flow of 15 μl/min, using 4 different scFv concentrations in the range comprised between 100-300 nM, in PBS, 0.005% P20 (Biacore). The binding curves were interpolated 1:1 according to the model of Langmuir, using the dedicated software termed BIAevaluation (version 3.5) with correction for the mass transfer. In order to increase the affinity, the TS-A12 antibody was subjected to substitution (“shuffling”) of the VL light chains. For this purpose the phagemid DNA was cut with BssHII and SaII to excise the VL region. This region was substituted with all the repertoire of VL chains of a preimmune library (Sblattero, D., and Bradbury A., 2000, Nat. Biotechnol. 18:75) that was prepared with same enzymes. […]

Test [3] addresses T2, C5 (Homo sapiens, UniProt P01031).
T2 construct: C5 alpha and beta subunits were obtained by incubating 50 μg of C5; purchased Quidel
In words: ELISA of C5a released after cleavage of C5 by C5 convertase. The following applies: FIG. 1A, classical pathway. The class given is biochemical. On the procedure:
(§1) Panel A) The ELISA assay measures the amount of C5a fragment released in the supernatant after enzymatic cleavage of C5, using antibodies anti-C5 as described in example 6. […] Sheep erythrocytes sensitised with antibodies and coated until the C3b (EAC1-3b) complement step were added to the mixture of TS-A12 or TS-A12/22 and C5, and the mixture was further incubated for 30 minutes at 37° C. (panel B).
(§2) The obtained anti-C5 scFv fragments were further characterised for their ability to inhibit the hemolytic activity of C5 or, in other words, to block conversion of the C5 component to C5a. […] At the end of this procedure, cell lysis was measured as percentage of the control of total lysis in distilled H2O (see FIG. 1, panel B). The inhibition of C5a and TCC production by the scFv TS-A12 and TS-A12/22 was measured by means of ELISA using the monoclonal antibody 17/5 as the capture antibody and antibody G25/2 as detection antibody according to what has been described in Opperman et al., 1991, Complement Inflamm. […] The presence of TCC was measured using antibody aE11 as the capture antibody and a biotinylated anti-C5 antibody (SIGMA-ALDRICH®) followed by alkaline phosphatase-conjugated streptavidin, as described by Tedesco et al. (1997, J Exp. Med. 185:1619).

Test [4] has as its target T2, C5. Briefly: Haemolytic assay / TCC ELISA with EAC1-3b sheep erythrocytes and C5 depleted serum. The class given is biochemical. The following applies: FIG. 1B. On the procedure: as §1
Sheep erythrocytes (SBRC: Sheep red blood cells) were sensitised with sub-agglutinating amounts of rabbit IgM (EA). […]
as §2

Entries after “also recorded” stand apart in the source; their conditions may differ.

As a reminder, the Kd is the concentration at which binding is half-saturated.

T2 sequence (P01031 678-1676 limits assumed): as the sequence (P01031 678-1676 limits assumed) above
T2 sequence (P01031 19-673 partner limits assumed): as the sequence (P01031 19-673 partner limits assumed) above
binding of the TS-A12/22 antibody to C5, sequence (P01031 678-1676 partner limits assumed, one chain of several): as the sequence (P01031 678-1676 limits assumed) above
binding of the TS-A12/22 antibody to C5, sequence (P01031 19-673 partner limits assumed, one chain of several): as the sequence (P01031 19-673 partner limits assumed) above

As to “GEEIQIGHIPREDVDYHLYP (PEPTIDE (1)..(20) fibronectin derived peptide; listed as Homo sapiens) [CS5, unrelated fibronectin derived peptide]”, the “inhibition of binding of TS-A12/22 to C5 (in words)” value in test [1] was “ineffective; also recorded: NO inhibition”.

B1: TS-A12: human anti-C5 single chain scFv antibody clone selected from a naive phage library (protein, listed as Homo sapiens)
scFv: DIRMTQSPDSLAVSLGERATINCKSSQSVLYSSNNKNYLAWYQQKPGQPPKLLIYWASTRESGVPDRFSGSGSGTDFTLTISSLQAEDVAVYYCQQYYSTPQLTFGGRTKVDIKSGGSTITSYNVYYTKLSSSGTQVQLQQSEGGVVQPGRSLRLSCAASGFTFSSYGMNWVRQAPGKGLEWVSYISSSSSTIYYADSVKGRFTISRDNSKNTLYLQMNSLRAEDTAVYYCARGPGMDVWGQGTTVTVSS
Turning to B1, in test [2], the dissociation constant (Kd) is 200 nM. The “inhibition of formation of C5a” value in test [3] is “inhibit almost completely”. In addition, the “inhibition of formation of TCC” value in test [4] is recorded as “inhibit almost completely”.

B2: C5A: C5a fragment; human recombinant C5a component purchased from SIGMA-ALDRICH (protein, UniProt P01031 678-751, looked up)
C5a anaphylatoxin: TLQKKIEEIAAKYKHSVVKKCCYDGACVNNDETCEQRAARISLGPRCIKAFTECCVVASQLRANISHKDMQLGR
modifications: C5a anaphylatoxin
notes: C5a fragment; human recombinant C5a component purchased from SIGMA-ALDRICH
For the molecule B2, the “inhibition of binding of TS-A12/22 to C5 (in words)” value in test [1] is recorded as “NO inhibition”.

(Values after patent publication US8962819B2, “Anti-C5 alpha antibodies” (Adienne S.A., priority 2002, dated 2015).)
